Results: paper PMC7865940, “Effect of DNA Glycosylases OGG1 and Neil1 on Oxidized G-Rich Motif in the KRAS Promoter”

Target: OGG1 (hOGG1, 8-oxoguanine glycosylase) (UniProt O15527 1-345)
Assay: EMSA; two retarded bands (1:1 and 1:2 suggested); not cleaved; EMSA buffer A: 50 mM Tris-HCl pH 7.4, 100 mM NaCl (duplex) or 100 mM KCl (G4), 1 mM EDTA, 5 mM NaF, 1 mM Na3VO4, 1 mM DTT, 2.5 ng/uL poly[dI-dC], 8% glycerol; 8 nM DNA, 0/1/5 uM protein (also given as 1 and 5 ug), 15 min; native 5% PAGE in TBE at 20 C (Results give buffer B for the G4 incubation)
Conditions: protein: recombinant; tags: N-terminal His; label: 5'-32P on G-rich strand; annealed with complementary strand in 100 mM NaCl

OGG1 (hOGG1, 8-oxoguanine glycosylase), sequence (O15527 whole entry): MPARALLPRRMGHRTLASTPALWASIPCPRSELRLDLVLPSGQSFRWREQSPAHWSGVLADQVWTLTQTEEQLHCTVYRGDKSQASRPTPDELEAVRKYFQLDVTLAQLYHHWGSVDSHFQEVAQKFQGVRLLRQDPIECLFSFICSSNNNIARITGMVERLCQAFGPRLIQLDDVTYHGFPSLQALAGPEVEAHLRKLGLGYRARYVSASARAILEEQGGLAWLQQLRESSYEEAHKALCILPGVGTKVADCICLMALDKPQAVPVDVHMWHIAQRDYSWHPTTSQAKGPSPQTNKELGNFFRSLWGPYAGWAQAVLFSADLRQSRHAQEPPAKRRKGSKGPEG

B1: 32R wild-type duplex (dsDNA)
DNA 1: AGGGCGGTGTGGGAAGAGGGAAGAGGGGGAGG
DNA 2: CCTCCCCCTCTTCCCTCTTCCCACACCGCCCT
  binding result: binds
